Experimental data from PMC3936747 (Nucleic Acids Research, 2013).
Read-outs that look alike come from different tables or passages of the source.

How the values were obtained:
[1] = biological target: T1, SpoIIIE motor domain (SpoIIIE C-terminal) (Bacillus subtilis, UniProt P21458 177-787); assay: fluorescence anisotropy
T1 sequence: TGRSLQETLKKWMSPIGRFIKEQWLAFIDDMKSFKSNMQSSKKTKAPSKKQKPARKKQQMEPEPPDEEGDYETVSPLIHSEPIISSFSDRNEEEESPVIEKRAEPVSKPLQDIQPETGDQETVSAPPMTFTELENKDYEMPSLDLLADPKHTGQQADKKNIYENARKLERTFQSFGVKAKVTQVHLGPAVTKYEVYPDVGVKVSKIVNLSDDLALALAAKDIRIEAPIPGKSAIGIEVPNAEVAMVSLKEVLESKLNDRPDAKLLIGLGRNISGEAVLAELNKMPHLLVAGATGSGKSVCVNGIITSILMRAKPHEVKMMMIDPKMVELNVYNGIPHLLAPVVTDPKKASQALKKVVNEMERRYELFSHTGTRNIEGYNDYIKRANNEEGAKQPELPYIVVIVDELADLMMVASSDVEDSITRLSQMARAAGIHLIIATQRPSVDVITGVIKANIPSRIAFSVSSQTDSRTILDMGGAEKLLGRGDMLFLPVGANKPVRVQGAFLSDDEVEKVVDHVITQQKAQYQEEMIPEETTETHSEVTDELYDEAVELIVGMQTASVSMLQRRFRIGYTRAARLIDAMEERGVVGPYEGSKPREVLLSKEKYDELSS

[2] = biological target: T1, SpoIIIE motor domain (SpoIIIE …); assay: fluorescence anisotropy; remark: listed apart in the source
[3] = biological target: T1, SpoIIIE motor domain (SpoIIIE …); assay: fluorescence anisotropy; remark: listed apart in the source
[4] = biological target: T2, SpoIIIE467 (Walker A mutant) (Bacillus subtilis, UniProt P21458 177-787, G467S); assay: fluorescence anisotropy
T2 sequence: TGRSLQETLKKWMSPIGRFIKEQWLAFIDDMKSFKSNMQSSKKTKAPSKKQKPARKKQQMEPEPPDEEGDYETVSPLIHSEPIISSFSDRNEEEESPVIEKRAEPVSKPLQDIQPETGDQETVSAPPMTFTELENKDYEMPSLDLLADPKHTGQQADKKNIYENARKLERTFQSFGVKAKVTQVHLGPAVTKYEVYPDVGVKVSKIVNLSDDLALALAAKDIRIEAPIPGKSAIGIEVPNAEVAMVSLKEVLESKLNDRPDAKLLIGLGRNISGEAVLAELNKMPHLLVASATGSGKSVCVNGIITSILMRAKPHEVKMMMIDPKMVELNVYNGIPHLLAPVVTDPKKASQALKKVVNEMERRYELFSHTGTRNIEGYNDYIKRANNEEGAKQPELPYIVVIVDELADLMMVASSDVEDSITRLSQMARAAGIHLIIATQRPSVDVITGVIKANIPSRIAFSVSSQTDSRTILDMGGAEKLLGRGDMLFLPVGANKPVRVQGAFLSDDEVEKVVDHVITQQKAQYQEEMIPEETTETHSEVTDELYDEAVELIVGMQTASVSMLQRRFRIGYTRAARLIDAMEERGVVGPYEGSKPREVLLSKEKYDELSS

[5] = biological target: the molecule itself; assay: negative-stain electron microscopy

B1: DNANS (43 bp, no SRS) (dsDNA)
DNA 1: GCGGAGGCGGGAGGCGGAGATCTTACCGCTGTTGAGATCCAGC
DNA 2: GCTGGATCTCAACAGCGGTAAGATCTCCGCCTCCCGCCTCCGC
Kd [1]: 61 ± 11 nM | Kd [2]: 60 ± 9 nM | Kd [3]: 43 ± 9 nM | Kd [4]: 63 ± 3 nM

B2: SpoIIIE C-terminal motor domain (residues 177-787) with a C-terminal hexahistidine tag (domain or fragment, Bacillus subtilis, UniProt P21458 177-787, looked up)
chain: TGRSLQETLKKWMSPIGRFIKEQWLAFIDDMKSFKSNMQSSKKTKAPSKKQKPARKKQQMEPEPPDEEGDYETVSPLIHSEPIISSFSDRNEEEESPVIEKRAEPVSKPLQDIQPETGDQETVSAPPMTFTELENKDYEMPSLDLLADPKHTGQQADKKNIYENARKLERTFQSFGVKAKVTQVHLGPAVTKYEVYPDVGVKVSKIVNLSDDLALALAAKDIRIEAPIPGKSAIGIEVPNAEVAMVSLKEVLESKLNDRPDAKLLIGLGRNISGEAVLAELNKMPHLLVAGATGSGKSVCVNGIITSILMRAKPHEVKMMMIDPKMVELNVYNGIPHLLAPVVTDPKKASQALKKVVNEMERRYELFSHTGTRNIEGYNDYIKRANNEEGAKQPELPYIVVIVDELADLMMVASSDVEDSITRLSQMARAAGIHLIIATQRPSVDVITGVIKANIPSRIAFSVSSQTDSRTILDMGGAEKLLGRGDMLFLPVGANKPVRVQGAFLSDDEVEKVVDHVITQQKAQYQEEMIPEETTETHSEVTDELYDEAVELIVGMQTASVSMLQRRFRIGYTRAARLIDAMEERGVVGPYEGSKPREVLLSKEKYDELSS
stoichiometry N [5]: 6
